Experimental data as given in the supplement of paper PMC10567573.

B1: PPFIA4 (parent)
chain: YAGNLHESGVHGALLALDENFDHN
B2: ANKRD40 (parent)
chain: VCCCELGVNPDQVEKIRKLPNTLL
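Also: lentivirally expressed fusions sorted by FACS into six bins by GFP to DsRed ratio, PSI derived from sequencing read proportions per bin multiplied by bin number.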

Variants of: B1
Test: protein stability index of a GFP-peptide fusion (GPS, HEK-293T) (PSI 1-6); higher = more stable
Conditions: c terminus: a fixed tail appended
With YAGNLHESGVHGALLALDENFRHN [D22R] the protein stability index was 1.56. YAGNLHESGVHGALLALDENFSHN [D22S] showed a protein stability index of 2.02. YAGNLHESGVHGALLALDENFTHN [D22T] gave a protein stability index of 1.87. YAGNLHESGVHGALLALDENFVHN [D22V] gave a protein stability index of 1.27. Work on YAGNLHESGVHGALLALDENFWHN [D22W] yielded a protein stability index of 2.41. With YAGNLHESGVHGALLALDENFYHN [D22Y] the protein stability index was 2.49. For YAGNLHESGVHGALLALDENFDAN [H23A], the protein stability index was 2.18. YAGNLHESGVHGALLALDENFDCN [H23C] showed a protein stability index of 2.13. For YAGNLHESGVHGALLALDENFDDN [H23D], the protein stability index was 2.58. Variant YAGNLHESGVHGALLALDENFDEN [H23E] has a protein stability index of 2.25. YAGNLHESGVHGALLALDENFDFN [H23F] gave a protein stability index of 2.12. For YAGNLHESGVHGALLALDENFDGN [H23G], the protein stability index was 2.46. YAGNLHESGVHGALLALDENFDIN [H23I] showed a protein stability index of 2.23. In the case of YAGNLHESGVHGALLALDENFDKN [H23K], the protein stability index is reported as 2.53. For YAGNLHESGVHGALLALDENFDLN [H23L], the protein stability index was 2.34. In the case of YAGNLHESGVHGALLALDENFDMN [H23M], the protein stability index is reported as 2.19. Variant YAGNLHESGVHGALLALDENFDNN [H23N] has a protein stability index of 2.63. YAGNLHESGVHGALLALDENFDPN [H23P] showed a protein stability index of 2.81. YAGNLHESGVHGALLALDENFDQN [H23Q] showed a protein stability index of 2.22. Variant YAGNLHESGVHGALLALDENFDRN [H23R] has a protein stability index of 2.47. For YAGNLHESGVHGALLALDENFDSN [H23S], the protein stability index was 2.19. YAGNLHESGVHGALLALDENFDTN [H23T] showed a protein stability index of 2.61. With YAGNLHESGVHGALLALDENFDVN [H23V] the protein stability index was 2.63. With YAGNLHESGVHGALLALDENFDWN [H23W] the protein stability index was 2.07. In the case of YAGNLHESGVHGALLALDENFDYN [H23Y], the protein stability index is reported as 2.43. Variant YAGNLHESGVHGALLALDENFDHA [N24A] has a protein stability index of 2.69. YAGNLHESGVHGALLALDENFDHC [N24C] gave a protein stability index of 2.58. With YAGNLHESGVHGALLALDENFDHD [N24D] the protein stability index was 2.46. Variant YAGNLHESGVHGALLALDENFDHE [N24E] has a protein stability index of 3.49. Variant YAGNLHESGVHGALLALDENFDHF [N24F] has a protein stability index of 2.01. With YAGNLHESGVHGALLALDENFDHG [N24G] the protein stability index was 2.13. YAGNLHESGVHGALLALDENFDHH [N24H] gave a protein stability index of 1.9. YAGNLHESGVHGALLALDENFDHI [N24I] gave a protein stability index of 2.27. In the case of YAGNLHESGVHGALLALDENFDHK [N24K], the protein stability index is reported as 2.02. With YAGNLHESGVHGALLALDENFDHL [N24L] the protein stability index was 2.28. With YAGNLHESGVHGALLALDENFDHM [N24M] the protein stability index was 1.92. Work on YAGNLHESGVHGALLALDENFDHP [N24P] yielded a protein stability index of 2.39. For YAGNLHESGVHGALLALDENFDHQ [N24Q], the protein stability index was 2.69. YAGNLHESGVHGALLALDENFDHR [N24R] showed a protein stability index of 1.9. YAGNLHESGVHGALLALDENFDHS [N24S] showed a protein stability index of 2.41. YAGNLHESGVHGALLALDENFDHT [N24T] gave a protein stability index of 2.42. Work on YAGNLHESGVHGALLALDENFDHV [N24V] yielded a protein stability index of 1.95. With YAGNLHESGVHGALLALDENFDHW [N24W] the protein stability index was 2.01. YAGNLHESGVHGALLALDENFDHY [N24Y] gave a protein stability index of 2.47.

Variants of: B2
Test: as above
Conditions: c terminus: a fixed tail appended
VCCCELGVNPDQVEKDRKLPNTLL [I16D] gave a protein stability index of 2.76. Work on VCCCELGVNPDQVEKIRKLPNTLT [L24T] yielded a protein stability index of 1.94. VCCCELGVNPDQVEKIRELPNTLL [K18E] gave a protein stability index of 2.03. In the case of VVCCELGVNPDQVEKIRKLPNTLL [C2V], the protein stability index is reported as 3.24. With VCECELGVNPDQVEKIRKLPNTLL [C3E] the protein stability index was 2.77. For VCCCELGVNPDQVEKIRNLPNTLL [K18N], the protein stability index was 1.64. For VCCCELIVNPDQVEKIRKLPNTLL [G7I], the protein stability index was 2.45. Work on VCCCELGVNPDQVEKIPKLPNTLL [R17P] yielded a protein stability index of 2.15. Work on VCCCALGVNPDQVEKIRKLPNTLL [E5A] yielded a protein stability index of 1.84. VCHCELGVNPDQVEKIRKLPNTLL [C3H] showed a protein stability index of 2.18. With VCCCELGVNPDQVLKIRKLPNTLL [E14L] the protein stability index was 2.13. For VCCCELGVNPDQCEKIRKLPNTLL [V13C], the protein stability index was 1.91. VCCCELGVNIDQVEKIRKLPNTLL [P10I] showed a protein stability index of 1.8. VCCNELGVNPDQVEKIRKLPNTLL [C4N] showed a protein stability index of 2.41. VCCCELAVNPDQVEKIRKLPNTLL [G7A] gave a protein stability index of 2.02. For KCCCELGVNPDQVEKIRKLPNTLL [V1K], the protein stability index was 2.35. VCCSELGVNPDQVEKIRKLPNTLL [C4S] showed a protein stability index of 2.84. With VCCCELGVNVDQVEKIRKLPNTLL [P10V] the protein stability index was 2.01. Variant VCCCELGYNPDQVEKIRKLPNTLL [V8Y] has a protein stability index of 1.77. In the case of VCCCELGVNPDQVEKIRKLPNTLW [L24W], the protein stability index is reported as 2.1. For VCCGELGVNPDQVEKIRKLPNTLL [C4G], the protein stability index was 2.12. VCCCELGVNPDQVEKIRKNPNTLL [L19N] gave a protein stability index of 2.23. With SCCCELGVNPDQVEKIRKLPNTLL [V1S] the protein stability index was 2.4. VLCCELGVNPDQVEKIRKLPNTLL [C2L] gave a protein stability index of 2.04. With VCSCELGVNPDQVEKIRKLPNTLL [C3S] the protein stability index was 2.09. VCCCELGVNPDNVEKIRKLPNTLL [Q12N] showed a protein stability index of 1.75. VCCCELGVNPDQVEVIRKLPNTLL [K15V] gave a protein stability index of 2.12. For VCCCELGPNPDQVEKIRKLPNTLL [V8P], the protein stability index was 1.79. In the case of LCCCELGVNPDQVEKIRKLPNTLL [V1L], the protein stability index is reported as 2.04. VCCCELGVNPDIVEKIRKLPNTLL [Q12I] gave a protein stability index of 2.38. Work on VCCCELGVNPDQVEKIRILPNTLL [K18I] yielded a protein stability index of 1.43. In the case of VCCCELGVNPDQVEKIRCLPNTLL [K18C], the protein stability index is reported as 1.75. In the case of VCCCELGVNPDQNEKIRKLPNTLL [V13N], the protein stability index is reported as 2.38. For NCCCELGVNPDQVEKIRKLPNTLL [V1N], the protein stability index was 2.31. VCCCELGVNPDQVEKIRKWPNTLL [L19W] showed a protein stability index of 2.73. In the case of VNCCELGVNPDQVEKIRKLPNTLL [C2N], the protein stability index is reported as 2.7. VECCELGVNPDQVEKIRKLPNTLL [C2E] gave a protein stability index of 3.52. VCCCELGVNPDQVEGIRKLPNTLL [K15G] gave a protein stability index of 1.41. In the case of VCCCELGVNPDQVEKIRKLHNTLL [P20H], the protein stability index is reported as 2.55. VCCCELGVDPDQVEKIRKLPNTLL [N9D] gave a protein stability index of 2.01. For VCCCELGVNPYQVEKIRKLPNTLL [D11Y], the protein stability index was 2.55. With VCCHELGVNPDQVEKIRKLPNTLL [C4H] the protein stability index was 2.27. For VCCCELGVNYDQVEKIRKLPNTLL [P10Y], the protein stability index was 1.31. Work on YCCCELGVNPDQVEKIRKLPNTLL [V1Y] yielded a protein stability index of 1.85. Variant VCCCELGVNPDQVEKIRKLPNVLL [T22V] has a protein stability index of 1.33. For VCCCELGVNPDQVEKIQKLPNTLL [R17Q], the protein stability index was 1.62. VCCCELGVNPDQVEKIRTLPNTLL [K18T] showed a protein stability index of 1.89. VCCCEIGVNPDQVEKIRKLPNTLL [L6I] gave a protein stability index of 1.8. In the case of VCCCELGVNPDQVEMIRKLPNTLL [K15M], the protein stability index is reported as 1.76. For VCCCELGLNPDQVEKIRKLPNTLL [V8L], the protein stability index was 1.34.
